Target: CeHsc70-Δ512 (lidless CeHsc70) (C. elegans), P09446
Sequence (P09446 1-512, stated change not applied): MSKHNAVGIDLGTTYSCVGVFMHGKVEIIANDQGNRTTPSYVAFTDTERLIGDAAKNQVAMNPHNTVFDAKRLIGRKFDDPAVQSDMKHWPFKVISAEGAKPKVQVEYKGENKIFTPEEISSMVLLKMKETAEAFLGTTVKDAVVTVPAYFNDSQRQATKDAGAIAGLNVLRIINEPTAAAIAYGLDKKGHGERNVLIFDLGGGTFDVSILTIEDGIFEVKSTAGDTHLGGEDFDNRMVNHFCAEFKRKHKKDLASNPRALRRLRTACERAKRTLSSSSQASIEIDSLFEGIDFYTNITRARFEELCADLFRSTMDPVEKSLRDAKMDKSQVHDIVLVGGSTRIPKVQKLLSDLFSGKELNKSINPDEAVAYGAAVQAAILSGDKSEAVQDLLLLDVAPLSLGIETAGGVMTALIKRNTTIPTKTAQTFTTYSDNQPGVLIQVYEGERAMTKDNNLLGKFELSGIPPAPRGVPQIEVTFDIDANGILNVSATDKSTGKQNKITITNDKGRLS

B1: BAG-1 (C. elegans, unlabelled), O44739 1-210 (natural protein)
chain: MKVNVSCSSVQTTIDILEENQGEDESILTLGQLRDRIATDNDVDVETMKLLHRGKFLQGADDVSLSTLNFKENDKIIVMGGKNALVDDAGFKMLMQYEKHNLSNLQKAYDLNLRDVADLERGFLEKPKQVEMGKKLEKKVKYFNEEAERHLETLDGMNIITETTPENQAKRNREKRKTLVNGIQTLLNQNDALLRRLQEYQSVLNGDIPE
  apparent KD of BAG-1 from titration of the steady-state ATPase activity, standard buffer, 25°C: 6.5 µM

Source: paper PMC3315512
